This note sets out measurements from patent publication EP1506971A1.

For test [1], the target named is prokineticin receptor expressed endogenously on M2A7 melanoma cells (ATCC CRL-2500). The test can be described thus: cell-based or functional assay.
The target in test [2] is prokineticin receptor(s) of guinea pig ileal membrane / ileal smooth muscle (guinea pig). Put plainly: cell-based or functional assay.

Consider “recombinant human prokineticin 2 (refolded, 6xHis-tagged, unlabeled) (from UniProt Q9HC23 28-129) (ligand)”, for which the EC50, calcium mobilization in M2A7 melanoma cells (FLIPR) in test [1] turned out to be 21 nM. The ED50, contraction of guinea-pig ileum longitudinal muscle in test [2] was 0.9 nM.

For the substance “recombinant human prokineticin 1 (refolded, 6xHis-tagged, unlabeled) (from UniProt P58294 20-105) (ligand)”, the EC50, calcium mobilization in M2A7 melanoma cells (FLIPR) in test [1] worked out at 12 nM. In test [2], this substance had an ED50, contraction of guinea-pig ileum longitudinal muscle of 0.46 nM.
